Reference: PMC8635156, “Structural and Functional Analysis of SsaV Cytoplasmic Domain and Variable Linker States in the Context of the InvA-SsaV Chimeric Protein” (Microbiology Spectrum, 2021)

B1: InvATM-SsaVL-SsaVC chimeric full-length protein (ISS) (other)
chain: MLLSLLNSARLRPELLILVLMVMIISMFVIPLPTYLVDFLIALNIVLAILVFMGSFYIDRILSFSTFPAVLLITTLFRLALSISTSRLILIEADAGEIIATFGQFVIGDSLAVGFVVFSIVTVVQFIVITKGSERVAEVAARFSLDGMPGKQMSIDADLKAGIIDADAARERRSVLERESQLYGSFDGAMKFIKGDAIAGIIIIFVNFIGGISVGMTRHGMDLSSALSTYTMLTIGDGLVAQIPALLIAISAGFIVTRVNGDSDNMGRNIMTQLLNNPFVLVVTAILTISMGTLPGFPLPVFVILSVVLSVLFYFIRRKKSVVSANGVEAPEKDSMVPGACPLILRLSPTLHSADLIRDIDAMRWFLFEDTGVPLPEVNIEVLPEPTEKLTVLLYQEPVFSLSIPAQADYLLIGADASVVGDSQTLPNGMGQICWLTKDMAHKAQGFGLDVFAGSQRISALLKCVLLRHMGEFIGVQETRYLMNAMEKNYSELVKELQRQLPINKIAETLQRLVSERVSIRDLRLIFGTLIDWAPREKDVLMLTEYVRIALRRHILRRLNPEGKPLPILRIGEGIENLVRESIRQTAMGTYTALSSRHKTQILQLIEQALKQSAKLFIVTSVDTRRFLRKITEATLFDVPILSWQELGEESLIQVVESIDLSEEELADNEE
notes: InvA, Salmonella enterica serovar Typhimurium, transmembrane region: what is left when residues 316-685 are replaced (residues 1-315); SsaV, Salmonella enterica serovar Typhimurium, residues 326-682 (linker SsaVL and cytoplasmic domain SsaVC); Eluted from the Strep-Tactin beads after the SUMO tag was cleaved on the beads; also called InvATM-SsaVC chimera; chimeric ISS; source: E. coli BL21, …
B2: SsaV cytoplasmic domain (SsaVC), residues 346-682 (domain or fragment)
chain: MVPGACPLILRLSPTLHSADLIRDIDAMRWFLFEDTGVPLPEVNIEVLPEPTEKLTVLLYQEPVFSLSIPAQADYLLIGADASVVGDSQTLPNGMGQICWLTKDMAHKAQGFGLDVFAGSQRISALLKCVLLRHMGEFIGVQETRYLMNAMEKNYSELVKELQRQLPINKIAETLQRLVSERVSIRDLRLIFGTLIDWAPREKDVLMLTEYVRIALRRHILRRLNPEGKPLPILRIGEGIENLVRESIRQTAMGTYTALSSRHKTQILQLIEQALKQSAKLFIVTSVDTRRFLRKITEATLFDVPILSWQELGEESLIQVVESIDLSEEELADNEE
notes: SsaV (SctV of the SPI-2 T3SS), Salmonella enterica serovar Typhimurium, residues 346-682 (cytoplasmic domain with the last residues of the linker); The His6 tag is thrombin-cleavable (pET15b); the purification as described names no cleavage step; also called SctVC of SPI-2; source: E. coli BL21, purified (Ni-NTA, Hitrap Q anion exchange, SEC)

How the values were obtained:
[1] = target: the molecule itself; experiment: cryo-EM structure; single particle analysis of the GDN-solubilised chimera ISS (~10 mg/ml); C9 symmetry, 2.11 Å for the SsaVC part; TM and linker regions hardly visible
[2] = target: the molecule itself; experiment: SEC; gel filtration of purified cytoplasmic domains (Superdex 200 Increase 10/300 GL; 20 mM Tris-HCl pH 8.0, 150 mM NaCl); Fig. 1B at two salt concentrations (physiological and high salt); Fig. 4D wild type and variants

Protein | stoichiometry N [1] | stoichiometry N [2]
B1 | 9 | –
B2 | – | 9
